Substrate in the data set “purified protein”: O=c1c(O)c(-c2ccc(O)cc2)oc2cc(O)cc(O)c12
The data set is described as follows: purified protein. Conditions: 10 mM UDP-glucose, 50 mM HEPES pH 8.0, 30°C, 2 min.

Substrate in data set [1]: O=c1c(O)c(-c2ccc(O)c(O)c2)oc2cc(O)cc(O)c12
The data set is described as follows: HPLC glucosyltransferase assay. Type of data set: biochemical, Freesia hybrid cultivar. As to conditions: 10 mM UDP-glucose, 50 mM HEPES pH 8.0, 30°C, 2 min, acceptor 10-60 µM.

Setting [2] is: acceptor 10-60 µM (Km lies far below this range).

B1: Fh3GT2 (Freesia hybrid cultivar) (protein)
chain: MGSSQPPTRRRHVAVIAFPFSSHPAALFTLARAMAAAAPGTTFSFLSFPGSVDSLSKIPCRPENLRLCHVADPTPPGAIPPEQRIGMFLAAAPAYLRAGIKAAEALDGGGVTCLVSDSLLWMTADVAEEKGVPWVAVWTGGTSALVVHVYTDRLRKFYGVVHGDAIHPRADELLDVNVVPGFSEHRVRDLPEGILWKVDSPFASLVDTMVSKFPRAVAVVANTIPGLDPGLDAAFASKFKNYLPIGPFTILSPLPSPQHDNECVAWLDRQAPASVAYVSFGTLAALPPSELTELANGLEASGVPFLWSMKNKEALPAGFLDRTRGKGLVVDWAPQASVLAHNAVGGFVTHCGWSSVMESVAAGVPMICRSVFGDQTMTAKMVCNAWKIGFGFSGGAITREEVVRGLRMVLRGEEGGREIRERSSELKSLAWREVKVEGRTVKNLNSLIEIING
notes: recombinant from E. coli BL21 (DE3), pET32a, N-terminal 6x His tag, Ni Sepharose purified
By Km is commonly meant the concentration of substrate that gives half-maximal velocity. In general, kcat refers to the number of substrate molecules converted per active site and unit of time at saturation. As a reminder, the kcat/Km is the turnover number divided by the Michaelis constant. With B1, in “purified protein” (setting [2]), the Km came to 0.13 ± 0.01 µM, the kcat turned out to be 0.73 s⁻¹ and the kcat/Km amounted to 5.46e+06 M⁻¹ s⁻¹. In data set [1], the Km is 16.62 ± 0.03 µM, the kcat was 1.86 ± 0.0023 s⁻¹ and the kcat/Km was 112000 M⁻¹ s⁻¹.

B2: Fh3GT1 (Freesia hybrid cultivar) (protein)
chain: MGSADRSHVALLAFPFGTHAAPLLSLGLNLASSAPHGTTFSFLSNRRPVSLPPNSAIKFYEIADGSDPEHEGHVHPEEEVRVFMEETPGNYKKALEAAVDRCGGQRVTCIVADAFLWFVGDIAAEFGVHWVPLWTGGPCSFLAHLYTDMLRNKIGTGKEADPDEDLQFLPGLSGFRVRDLPDDIVTGDLTGAFASLLHRMSIEIPRSAAAIAINTFEGLHPDIDADLASKFKKSLPIGPLNLLNPTLNQPDRFSCLAWLDKFEPHSVAYVSFGTLAALTEAELVELASGLEQSGVPFLWSLKEPGQLPAGFLDRTKDRGLVVPWVPQAEALKHVAVGASLSHCGWNSVMESVTSGVPMLCRPFLGDQTMNARAVSHVWKVGVTFENGTMTRANVAEAMKKVVVGEEGRKMRERAAAIREMAAGSVRPGGSSVQNFKALLDIVIAR
notes: as for B1
In the case of B2, the Km in “purified protein” (acceptor 10-60 µM) came out at 45.38 ± 3.90 µM. Besides, in data set [1], the Km was 96.38 ± 5.03 µM, the kcat turned out to be 4.51 ± 0.039 s⁻¹ and the kcat/Km stood at 46900 M⁻¹ s⁻¹.

Source of the values: article PMC6813240, “Functional Differentiation of Duplicated Flavonoid 3-O-Glycosyltransferases in the Flavonol and Anthocyanin Biosynthesis of Freesia hybrida” (Frontiers in Plant Science, 2019).
